Experimental data taken from paper PMC3010111.

Key:
Assay in all cases: purified protein
purified protein [1] = substrate: O=C(O)[C@H](O)[C@H](O)COP(=O)(O)O; conditions: 2 mM NAD+, 100 mM Tris–HCl pH 7.5, 25°C, 2 μM PdxA
purified protein [2] = substrate: C[C@@H](O)[C@H](N)C(=O)O; conditions: 0.1 M Tris–HCl pH 8.0, 25°C, 1.25 μM LtaE
purified protein [3] = substrate: C[C@H](O)[C@H](N)C(=O)O; conditions: 0.1 M Tris–HCl pH 8.0, 25°C, 62.5 nM LtaE
purified protein [4] = substrate: N[C@H](C(=O)O)[C@H](O)CO
purified protein [5] = substrate: O=C(O)C(=O)COP(=O)(O)O; conditions: 50 mM Tris–HCl pH 7.4, 37°C, MalE–YeaB 5.7 μM
purified protein [6] = substrate: N[C@@H](CCO)C(=O)O; conditions: 25°C, 37 nM ThrB
[7] = 0.1 M Tris–HCl pH 8.0, 25°C, 1 μM LtaE

B1: PdxA (4-hydroxy-L-threonine dehydrogenase) (Escherichia coli K-12) (protein)
chain: MVKTQRVVITPGEPAGIGPDLVVQLAQREWPVELVVCADATLLTNRAAMLGLPLTLRPYSPNSPAQPQTAGTLTLLPVALRAPVTAGQLAVENGHYVVETLARACDGCLNGEFAALITGPVHKGVINDAGIPFTGHTEFFEERSQAKKVVMMLATEELRVALATTHLPLRDIADAITPALLHEVIAILHHDLRTKFGIAEPRILVCGLNPHAGEGGHMGTEEIDTIIPVLNELRAQGMKLNGPLPADTLFQPKYLDNADAVLAMYHDQGLPVLKYQGFGRGVNITLGLPFIRTSVDHGTALELAGRGKADVGSFITALNLAIKMIVNTQ
With B1 the Km (purified protein [1]) was 150 ± 13 µM and the kcat (purified protein [1]) was 0.020 ± 0.002 s⁻¹.

B2: LtaE (low-specificity threonine aldolase) (Escherichia coli K-12) (protein)
chain: MIDLRSDTVTRPSRAMLEAMMAAPVGDDVYGDDPTVNALQDYAAELSGKEAAIFLPTGTQANLVALLSHCERGEEYIVGQAAHNYLFEAGGAAVLGSIQPQPIDAAADGTLPLDKVAMKIKPDDIHFARTKLLSLENTHNGKVLPREYLKEAWEFTRERNLALHVDGARIFNAVVAYGCELKEITQYCDSFTICLSKGLGTPVGSLLVGNRDYIKRAIRWRKMTGGGMRQSGILAAAGIYALKNNVARLQEDHDNAAWMAEQLREAGADVMRQDTNMLFVRVGEENAAALGEYMKARNVLINASPIVRLVTHLDVSREQLAEVAAHWRAFLAR
For B2, the Km (purified protein [2]) was 4000 ± 200 µM, the kcat (purified protein [2]) was 1.1 ± 0.1 s⁻¹ and the kcat/Km (purified protein [2]) was 280 ± 20 M⁻¹ s⁻¹. The Km (purified protein [3]) was 52 ± 4 µM, the kcat (purified protein [3]) was 3.2 ± 0.2 s⁻¹ and the kcat/Km (purified protein [3]) was 62000 ± 5000 M⁻¹ s⁻¹. The Km (purified protein [4]; [7]) was 27 ± 2 µM, the kcat (purified protein [4]; [7]) was 1.44 ± 0.03 s⁻¹ and the kcat/Km (purified protein [4]; [7]) was 53000 ± 4000 M⁻¹ s⁻¹.

B3: MalE–YeaB (YeaB, also known as NudL) (Escherichia coli K-12) (protein)
chain: MEYRSLTLDDFLSRFQLLRPQINRETLNHRQAAVLIPIVRRPQPGLLLTQRSIHLRKHAGQVAFPGGAVDDTDASAIAAALREAEEEVAIPPSAVEVIGVLPPVDSVTGYQVTPVVGIIPPDLPYRASEDEVSAVFEMPLAQALHLGRYHPLDIYRRGDSHRVWLSWYEQYFVWGMTAGIIRELALQIGVKP
B3 was tested, and the kcat (purified protein [5]) was 5.7e-05 ± 7e-06 s⁻¹ and the kcat/Km (purified protein [5]) was greater than 0.028 M⁻¹ s⁻¹.

B4: ThrB (homoserine kinase) (Escherichia coli K-12) (protein)
chain: MVKVYAPASSANMSVGFDVLGAAVTPVDGALLGDVVTVEAAETFSLNNLGRFADKLPSEPRENIVYQCWERFCQELGKQIPVAMTLEKNMPIGSGLGSSACSVVAALMAMNEHCGKPLNDTRLLALMGELEGRISGSIHYDNVAPCFLGGMQLMIEENDIISQQVPGFDEWLWVLAYPGIKVSTAEARAILPAQYRRQDCIAHGRHLAGFIHACYSRQPELAAKLMKDVIAEPYRERLLPGFRQARQAVAEIGAVASGISGSGPTLFALCDKPETAQRVADWLGKNYLQNQEGFVHICRLDTAGARVLEN
In the case of B4, the Km (purified protein [6]) is reported as 120 ± 20 µM, the kcat (purified protein [6]) is reported as 46 ± 4 s⁻¹ and the kcat/Km (purified protein [6]) is reported as 380000 ± 70000 M⁻¹ s⁻¹. For the same protein, the Km (purified protein [4]; 25°C, 0.18 μM ThrB) was 2000 ± 100 µM, the kcat (purified protein [4]; 25°C, 0.18 μM ThrB) was 9.7 ± 0.8 s⁻¹ and the kcat/Km (purified protein [4]; 25°C, 0.18 μM ThrB) was 4800 ± 600 M⁻¹ s⁻¹.
